The target in assay [1] is IGF-II receptor (Long Evans rat liver) (rat). Put plainly: saturation binding of [125I] IGF-II to pooled rat liver homogenate, filter plates; control diet, vehicle.
For assay [2] the target is unchanged. In words: saturation binding of [125I] IGF-II to pooled rat liver homogenate, filter plates; ethanol diet, vehicle.
Assay [3] shares this target. Put plainly: saturation binding of [125I] IGF-II to pooled rat liver homogenate, filter plates; control diet, PPAR-α agonist treated rats.
Assay [4] shares this target. In words: saturation binding of [125I] IGF-II to pooled rat liver homogenate, filter plates; control diet, PPAR-γ agonist treated rats.
For assay [5] the target is unchanged. In words: saturation binding of [125I] IGF-II to pooled rat liver homogenate, filter plates; control diet, PPAR-δ agonist treated rats.
Assay [6] shares this target. In words: saturation binding of [125I] IGF-II to pooled rat liver homogenate, filter plates; ethanol diet, PPAR-α agonist treated rats.
Assay [7] shares this target. In words: saturation binding of [125I] IGF-II to pooled rat liver homogenate, filter plates; ethanol diet, PPAR-γ agonist treated rats.
Assay [8] shares this target. In words: saturation binding of [125I] IGF-II to pooled rat liver homogenate, filter plates; ethanol diet, PPAR-δ agonist treated rats.

Human recombinant [125I] IGF-II, sequence (P01344 25-91): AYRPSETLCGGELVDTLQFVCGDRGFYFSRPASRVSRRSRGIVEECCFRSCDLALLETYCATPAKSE

For the substance “Human recombinant [125I] IGF-II (from UniProt P01344 25-91) (ligand)”, the BMAX in assay [1] came to 40.1; in assay [2], 22.6; in assay [3] it was 40.3; in assay [4] it was 25.2; in assay [5], 29; in assay [6], 28.9. For the same substance, the BMAX was determined as 22.6 in assay [7] and 51.5 in assay [8].

Values taken from US20100021386A1.
